According to article PMC3033224 (Nature chemical biology, 2010):
Positions of bridges follow the written chain, without caps; N, C: chain ends. Non-standard residues stand in square brackets, D forms with d. No end group written: not given here. *: point of attachment. FITC = O=C1OC2(c3ccc(O)cc3Oc3cc(O)ccc32)c2ccc(NC(=S)*)cc21; S5 = C=CCCC[C@](C)(N)C(=O)O; Nle = CCCC[C@H](N)C(=O)O; βAla = NCCC(=O)O

Target: recombinant human MCL-1ΔNΔC (amino acids 172–320) (human, UniProt Q07820 172-320)
Assay: fluorescence polarisation

Chain of recombinant human MCL-1ΔNΔC (amino acids 172–320) (Q07820 172-320, stated change not applied): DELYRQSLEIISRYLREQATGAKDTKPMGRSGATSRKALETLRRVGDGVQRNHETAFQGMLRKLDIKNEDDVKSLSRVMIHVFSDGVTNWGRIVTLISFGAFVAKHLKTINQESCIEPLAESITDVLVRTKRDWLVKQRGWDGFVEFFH

Row | Binder | Kd [nM]
1 | {FITC-βAla}-DIIRNIARHLA[S5]VGD[S5][Nle]DRSI (staple 12-16) [FITC-BID SAHBA] | ≤ 50
2 | {FITC-βAla}-QWAREIGAQLR[S5][Nle]AD[S5]LNAQY (staple 12-16) [FITC-PUMA SAHBA] | ≤ 50
